In patent publication US20220010021A1 (Sanofi, published 2022):
Changes are numbered by the printed parent chain.

T1: human beta-Klotho (KLB) (human, UniProt Q86Z14 53-997)
T1 construct: bought protein; also called human KLB
T1 sequence (looked up): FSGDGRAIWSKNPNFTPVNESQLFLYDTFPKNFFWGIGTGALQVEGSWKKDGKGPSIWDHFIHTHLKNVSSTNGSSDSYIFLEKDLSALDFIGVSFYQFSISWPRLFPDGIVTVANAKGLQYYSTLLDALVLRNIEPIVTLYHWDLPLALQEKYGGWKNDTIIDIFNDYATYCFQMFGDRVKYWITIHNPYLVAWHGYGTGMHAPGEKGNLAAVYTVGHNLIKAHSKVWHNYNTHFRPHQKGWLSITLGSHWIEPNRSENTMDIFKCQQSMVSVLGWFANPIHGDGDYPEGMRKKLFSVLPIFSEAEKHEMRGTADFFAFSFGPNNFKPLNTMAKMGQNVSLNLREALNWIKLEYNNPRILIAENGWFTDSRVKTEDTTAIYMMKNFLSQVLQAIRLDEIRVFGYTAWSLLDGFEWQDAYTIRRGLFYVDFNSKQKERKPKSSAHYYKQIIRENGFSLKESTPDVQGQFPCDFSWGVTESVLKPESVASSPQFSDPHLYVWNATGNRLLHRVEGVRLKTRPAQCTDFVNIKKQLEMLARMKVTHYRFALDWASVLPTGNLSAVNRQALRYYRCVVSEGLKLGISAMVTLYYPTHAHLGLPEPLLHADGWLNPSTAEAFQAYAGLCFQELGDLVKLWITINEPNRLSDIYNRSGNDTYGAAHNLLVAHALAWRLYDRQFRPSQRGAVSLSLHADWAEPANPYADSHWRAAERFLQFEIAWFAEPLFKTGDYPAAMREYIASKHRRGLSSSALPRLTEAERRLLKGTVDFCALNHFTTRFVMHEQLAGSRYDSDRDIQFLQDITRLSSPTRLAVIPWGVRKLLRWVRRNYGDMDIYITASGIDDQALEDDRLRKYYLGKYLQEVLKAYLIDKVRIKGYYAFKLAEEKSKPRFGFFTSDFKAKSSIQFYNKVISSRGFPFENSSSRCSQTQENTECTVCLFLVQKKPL

B1: Ab0203 (antibody, IgG4, V domains shown)
VH: QVTLKESGPVLVKPTETLTLTCTVSGFSLNNARVGVSWIRQPPGKALEWLAHIFSNDEKSYSTSLKSRLTISKDTSKSQVVLTMTNMDPVDTATYYCARSVVTGGYYYEGMDVWGQGTTVTVSS
VL: SYVLTQPPSVSVAPGQTARITCGGNNIGSESVHWYQQKPGQAPVLVVYDESDRPSGIPERFSGSNSGNTATLTISRVEAGDEADYYCQVWDGNSDHVVFGGGTKLTVLG
notes: IgG4 PE
B2: Ab0295 (antibody, IgG4, V domains shown)
VH: B1 VH
VL: B1 VL with N25S, D49Y, E50D
notes: IgG4 PE
B3: Ab0227 (antibody, IgG4, V domains shown)
VH: not shown
VL: B1 VL with E50Y
notes: IgG4 PE
B4: Ab0298 (antibody, IgG4, V domains shown)
VH: B1 VH
VL: B1 VL with N25S, D49Y
notes: IgG4 PE
B5: Ab0326 (antibody, IgG4, V domains shown)
VH: B1 VH
VL: B1 VL with N25S, D49Y, D91E, N93S
notes: IgG4 PE
B6: Ab0225 (antibody, IgG4, V domains shown)
VH: not shown
VL: B1 VL with D49E, E50D
notes: IgG4 PE
B7: Ab0208 (antibody, IgG4, V domains shown)
VH: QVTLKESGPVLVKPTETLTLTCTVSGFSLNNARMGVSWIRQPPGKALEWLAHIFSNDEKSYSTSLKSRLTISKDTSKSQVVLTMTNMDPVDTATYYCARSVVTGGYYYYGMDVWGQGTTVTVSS
VL: B1 VL with N25S, E50D
notes: IgG4 PE
B8: Ab0205 (antibody, IgG4, V domains shown)
VH: B1 VH
VL: B1 VL with E50D, N93E
notes: IgG4 PE
B9: Ab0311 (antibody, IgG4, V domains shown)
VH: B1 VH
VL: B1 VL with D49Y, N93E
notes: IgG4 PE
B10: Ab0228 (antibody, IgG4, V domains shown)
VH: not shown
VL: B1 VL with E50A
notes: IgG4 PE
B11: Ab0314 (antibody, IgG4, V domains shown)
VH: B1 VH
VL: B1 VL with N25S, E50D, D91T, N93E
notes: IgG4 PE
B12: Ab0212 (antibody, IgG4, V domains shown)
VH: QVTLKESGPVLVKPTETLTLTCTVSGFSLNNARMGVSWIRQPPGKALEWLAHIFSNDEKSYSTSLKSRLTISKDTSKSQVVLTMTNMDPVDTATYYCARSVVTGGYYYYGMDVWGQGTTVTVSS
VL: B1 VL with E50D, N93E
notes: IgG4 PE
B13: Ab0306 (antibody, IgG4, V domains shown)
VH: B1 VH
VL: B1 VL with N25S, E50D, N93E
notes: IgG4 PE
B14: Ab0222 (antibody, IgG4, V domains shown)
VH: not shown
VL: B1 VL with N25T, E50D
notes: IgG4 PE
B15: Ab0307 (antibody, IgG4, V domains shown)
VH: B1 VH
VL: B1 VL with D49Y, E50D, N93E
notes: IgG4 PE
B16: Ab0221 (antibody, IgG4, V domains shown)
VH: not shown
VL: B1 VL with N25A, E50D
notes: IgG4 PE
B17: Ab0226 (antibody, IgG4, V domains shown)
VH: not shown
VL: B1 VL with D49T, E50D
notes: IgG4 PE
B18: Ab0296 (antibody, IgG4, V domains shown)
VH: B1 VH
VL: B1 VL with N25S
notes: IgG4 PE
B19: Ab0215 (antibody, IgG4, V domains shown)
VH: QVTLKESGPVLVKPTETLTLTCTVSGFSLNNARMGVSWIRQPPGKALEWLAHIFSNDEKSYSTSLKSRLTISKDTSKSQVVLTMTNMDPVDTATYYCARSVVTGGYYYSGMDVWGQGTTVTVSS
VL: B1 VL with N25S, E50D
notes: IgG4 PE
B20: Ab0234 (antibody, IgG4, V domains shown)
VH: not shown
VL: B1 VL with E50D, N93S
notes: IgG4 PE
B21: Ab0216 (antibody, IgG4, V domains shown)
VH: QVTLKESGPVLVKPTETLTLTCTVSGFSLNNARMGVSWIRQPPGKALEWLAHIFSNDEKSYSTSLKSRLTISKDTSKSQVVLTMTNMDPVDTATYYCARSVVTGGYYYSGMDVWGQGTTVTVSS
VL: B1 VL with D49Y, E50D
notes: IgG4 PE
B22: Ab0309 (antibody, IgG4, V domains shown)
VH: B1 VH
VL: B1 VL with N93E
notes: IgG4 PE
B23: Ab0327 (antibody, IgG4, V domains shown)
VH: B1 VH
VL: B1 VL with N25S, D49Y, E50Y, D91E, N93E
notes: IgG4 PE
B24: Ab0235 (antibody, IgG4, V domains shown)
VH: not shown
VL: B1 VL with E50D, N93D
notes: IgG4 PE
B25: Ab0312 (antibody, IgG4, V domains shown)
VH: B1 VH
VL: B1 VL with N25S, D49Y, N93E
notes: IgG4 PE
B26: Ab0229 (antibody, IgG4, V domains shown)
VH: not shown
VL: B1 VL with E50H
notes: IgG4 PE
B27: Ab0217 (antibody, IgG4, V domains shown)
VH: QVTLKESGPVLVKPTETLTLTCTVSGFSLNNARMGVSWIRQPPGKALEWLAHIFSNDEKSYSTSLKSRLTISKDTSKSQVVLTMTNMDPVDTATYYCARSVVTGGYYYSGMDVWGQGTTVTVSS
VL: B1 VL
notes: IgG4 PE
B28: Ab0218 (antibody, IgG4, V domains shown)
VH: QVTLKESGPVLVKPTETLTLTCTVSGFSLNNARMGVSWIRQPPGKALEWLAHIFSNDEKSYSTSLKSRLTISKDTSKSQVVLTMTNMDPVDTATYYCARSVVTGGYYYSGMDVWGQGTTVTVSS
VL: B1 VL with E50D, D91T
notes: IgG4 PE
B29: Ab0204 (antibody, IgG4, V domains shown)
VH: B1 VH
VL: B1 VL with E50D, D91T
notes: IgG4 PE
B30: Ab0230 (antibody, IgG4, V domains shown)
VH: not shown
VL: B1 VL with E50S
notes: IgG4 PE
B31: Ab0308 (antibody, IgG4, V domains shown)
VH: B1 VH
VL: B1 VL with N25S, D49Y, E50D, N93E
notes: IgG4 PE
B32: Ab0297 (antibody, IgG4, V domains shown)
VH: B1 VH
VL: B1 VL with D49Y
notes: IgG4 PE
B33: Ab0223 (antibody, IgG4, V domains shown)
VH: not shown
VL: B1 VL with D49S, E50D
notes: IgG4 PE
B34: Ab0310 (antibody, IgG4, V domains shown)
VH: B1 VH
VL: B1 VL with N25S, N93E
notes: IgG4 PE
B35: Ab0236 (antibody, IgG4, V domains shown)
VH: not shown
VL: B1 VL with E50D, N93A
notes: IgG4 PE
B36: Ab0219 (antibody, IgG4, V domains shown)
VH: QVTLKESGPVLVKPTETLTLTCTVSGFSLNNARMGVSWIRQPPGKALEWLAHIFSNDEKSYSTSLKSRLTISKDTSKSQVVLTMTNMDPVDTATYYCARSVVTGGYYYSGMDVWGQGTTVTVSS
VL: B1 VL with E50D, N93E
notes: IgG4 PE

Legend:
human beta-Klotho (KLB) = molecular target: T1, human beta-Klotho (KLB); experiment: SPR;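 note: Anti-KLB antibodies captured on anti-human Fc CM5 chip, KLB injected as analyte, 180 s association and 1800 s dissociation, fitted to 1:1 binding model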
[1] = molecular target: human FGFR1c + KLB receptor complex on HEK293 iLite FGF21 reporter cells (human, UniProt P11362 22-822; Q86Z14 1-1044); experiment: cell-based or functional assay
Chain of human FGFR1c + KLB receptor complex on HEK293 iLite FGF21 reporter cells (P11362 22-822, chain 1 of 2): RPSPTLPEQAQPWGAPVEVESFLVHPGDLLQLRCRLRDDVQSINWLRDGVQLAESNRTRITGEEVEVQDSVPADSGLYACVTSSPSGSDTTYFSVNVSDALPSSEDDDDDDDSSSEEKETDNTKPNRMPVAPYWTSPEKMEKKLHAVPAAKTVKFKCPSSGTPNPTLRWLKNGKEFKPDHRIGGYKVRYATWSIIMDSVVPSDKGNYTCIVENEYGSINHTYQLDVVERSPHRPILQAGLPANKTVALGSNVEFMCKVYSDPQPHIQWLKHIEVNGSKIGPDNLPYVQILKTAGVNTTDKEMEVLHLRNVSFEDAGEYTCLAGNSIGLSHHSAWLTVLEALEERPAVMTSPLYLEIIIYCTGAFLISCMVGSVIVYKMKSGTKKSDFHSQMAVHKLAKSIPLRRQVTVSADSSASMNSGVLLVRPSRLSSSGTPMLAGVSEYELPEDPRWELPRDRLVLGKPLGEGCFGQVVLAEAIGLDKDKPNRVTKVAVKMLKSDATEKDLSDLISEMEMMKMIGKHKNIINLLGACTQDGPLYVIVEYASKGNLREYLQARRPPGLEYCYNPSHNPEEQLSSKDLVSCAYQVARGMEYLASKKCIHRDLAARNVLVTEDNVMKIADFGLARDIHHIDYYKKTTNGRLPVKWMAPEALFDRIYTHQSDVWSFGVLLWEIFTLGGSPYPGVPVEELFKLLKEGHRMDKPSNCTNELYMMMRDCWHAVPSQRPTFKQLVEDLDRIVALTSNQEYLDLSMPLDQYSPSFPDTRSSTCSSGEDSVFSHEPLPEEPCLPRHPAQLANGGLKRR
Chain of human FGFR1c + KLB receptor complex on HEK293 iLite FGF21 reporter cells (Q86Z14 whole entry, chain 2 of 2): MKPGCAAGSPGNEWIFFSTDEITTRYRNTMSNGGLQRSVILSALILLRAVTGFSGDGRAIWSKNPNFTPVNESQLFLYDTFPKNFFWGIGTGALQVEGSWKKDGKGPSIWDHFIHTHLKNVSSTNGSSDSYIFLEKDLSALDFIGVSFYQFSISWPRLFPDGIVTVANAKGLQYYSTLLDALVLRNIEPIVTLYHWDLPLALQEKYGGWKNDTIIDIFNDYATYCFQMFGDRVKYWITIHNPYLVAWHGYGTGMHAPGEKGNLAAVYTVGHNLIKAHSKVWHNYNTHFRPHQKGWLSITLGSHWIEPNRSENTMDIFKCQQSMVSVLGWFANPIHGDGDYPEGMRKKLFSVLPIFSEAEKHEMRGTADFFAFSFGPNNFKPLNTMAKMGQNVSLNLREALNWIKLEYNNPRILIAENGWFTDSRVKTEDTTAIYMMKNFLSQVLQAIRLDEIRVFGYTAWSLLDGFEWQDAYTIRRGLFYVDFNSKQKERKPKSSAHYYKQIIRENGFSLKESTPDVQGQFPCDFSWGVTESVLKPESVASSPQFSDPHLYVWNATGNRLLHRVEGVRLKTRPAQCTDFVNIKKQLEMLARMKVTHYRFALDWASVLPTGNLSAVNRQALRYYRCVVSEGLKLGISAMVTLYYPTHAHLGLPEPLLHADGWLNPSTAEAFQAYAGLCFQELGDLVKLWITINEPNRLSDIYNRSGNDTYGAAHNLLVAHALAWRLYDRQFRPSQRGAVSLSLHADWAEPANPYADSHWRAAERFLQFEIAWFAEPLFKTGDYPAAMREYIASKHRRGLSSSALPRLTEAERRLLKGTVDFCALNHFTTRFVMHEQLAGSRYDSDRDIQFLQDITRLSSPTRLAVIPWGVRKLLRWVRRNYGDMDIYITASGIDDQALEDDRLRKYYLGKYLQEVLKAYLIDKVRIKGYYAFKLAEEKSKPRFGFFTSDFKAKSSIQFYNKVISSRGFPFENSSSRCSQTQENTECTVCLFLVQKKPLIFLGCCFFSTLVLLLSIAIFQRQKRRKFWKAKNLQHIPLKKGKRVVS

Row | Binder | koff (human beta-Klotho (KLB)) | EC50 [1] | Emax [1]
1 | B1 | 0.00151 s⁻¹ | 0.05 nM | 1600%
2 | B2 | 0.00157 s⁻¹ | 0.07 nM | 1310%
3 | B3 | 0.000214 s⁻¹ | 0.06 nM | 2340%
4 | B4 | 0.0016 s⁻¹ | 0.08 nM | 1180%
5 | B5 | 0.00175 s⁻¹ | 0.07 nM | 1010%
6 | B6 | 0.00104 s⁻¹ | 0.09 nM | 1790%
7 | B7 | 0.0021 s⁻¹ | 0.27 nM | 1270%
8 | B8 | 0.000334 s⁻¹ | 0.02 nM | 2120%
9 | B9 | 0.0013 s⁻¹ | 0.05 nM | 1080%
10 | B10 | 0.000258 s⁻¹ | 0.04 nM | 1380%
11 | B11 | 0.000402 s⁻¹ | 0.05 nM | 1110%
12 | B12 | 0.00185 s⁻¹ | 0.07 nM | 1640%
13 | B13 | 0.000288 s⁻¹ | 0.05 nM | 1330%
14 | B14 | 0.000309 s⁻¹ | 0.13 nM | 2020%
15 | B15 | 0.00118 s⁻¹ | 0.06 nM | 1150%
16 | B16 | 0.00011 s⁻¹ | 0.09 nM | 2000%
17 | B17 | 0.00101 s⁻¹ | 0.11 nM | 1970%
18 | B18 | 0.00137 s⁻¹ | 0.06 nM | 1290%

Row | Binder | koff (human beta-Klotho (KLB)) | EC50 [1] | Emax [1]
19 | B19 | 0.00125 s⁻¹ | 0.04 nM | 2000%
20 | B20 | 0.00011 s⁻¹ | 0.04 nM | 1840%
21 | B21 | 0.00984 s⁻¹ | 0.27 nM | 1180%
22 | B22 | 0.00103 s⁻¹ | 0.04 nM | 1210%
23 | B23 | 0.000346 s⁻¹ | 0.05 nM | 995%
24 | B24 | 0.000153 s⁻¹ | 0.06 nM | 2090%
25 | B25 | 0.00053 s⁻¹ | 0.07 nM | 1010%
26 | B26 | 0.000394 s⁻¹ | 0.04 nM | 1440%
27 | B27 | 0.002 s⁻¹ | 0.07 nM | 1970%
28 | B28 | 0.00668 s⁻¹ | 2.13 nM | 1060%
29 | B29 | 0.00133 s⁻¹ | 0.04 nM | 1420%
30 | B30 | 0.000111 s⁻¹ | 0.06 nM | 1610%
31 | B31 | 0.0013 s⁻¹ | 0.06 nM | 1070%
32 | B32 | 0.00156 s⁻¹ | 0.07 nM | 1210%
33 | B33 | 0.00024 s⁻¹ | 0.06 nM | 2050%
34 | B34 | 0.00116 s⁻¹ | 0.05 nM | 1080%
35 | B35 | 0.000151 s⁻¹ | 0.05 nM | 2190%
36 | B36 | 0.000915 s⁻¹ | 0.02 nM | 2490%
